Measurements taken from PMC11187625, “New Labeled PET Analogues Enable the Functional Screening and Characterization of PET-Degrading Enzymes” (ACS Sustainable Chemistry & Engineering, 2024).

Tests used:
Assay in all cases: fluorescence, 4-mU release
Conditions in all cases: 0.1 M phosphate pH 7, 30 °C, 5% DMSO
[1] = substrate: COC(=O)c1ccc(C(=O)OCCOC(=O)c2ccc(C(=O)Oc3ccc4c(C)cc(=O)oc4c3)cc2)cc1; assay type: biochemical, unidentified prokaryotic organism
Description: (§1) fluorescence, 4-mU release on LCC^ICCG (leaf-branch compost cutinase ICCG variant)

[2] = substrate: COC(=O)c1ccc(C(=O)Oc2ccc3c(C)cc(=O)oc3c2)cc1; assay type: biochemical, unidentified prokaryotic organism
Description: as §1

[3] = substrate: CCOCCOC(=O)c1ccc(C(=O)Oc2ccc3c(C)cc(=O)oc3c2)cc1; assay type: biochemical, unidentified prokaryotic organism
Description: as §1

[4] = substrate: COC(=O)c1ccc(C(=O)OCCOC(=O)c2ccc(C(=O)Oc3ccc4c(C)cc(=O)oc4c3)cc2)cc1; assay type: biochemical, Pseudideonella sakaiensis
Description: (§2) fluorescence, 4-mU release on IsPETase

[5] = substrate: COC(=O)c1ccc(C(=O)Oc2ccc3c(C)cc(=O)oc3c2)cc1; assay type: biochemical, Pseudideonella sakaiensis
Description: as §2

[6] = substrate: CCOCCOC(=O)c1ccc(C(=O)Oc2ccc3c(C)cc(=O)oc3c2)cc1; assay type: biochemical, Pseudideonella sakaiensis
Description: as §2

[7] = substrate: COC(=O)c1ccc(C(=O)Oc2ccc3c(C)cc(=O)oc3c2)cc1; assay type: biochemical, Thermothelomyces thermophilus
Description: (§3) fluorescence, 4-mU release on StGE2 (glucuronoyl esterase)

[8] = substrate: CCOCCOC(=O)c1ccc(C(=O)Oc2ccc3c(C)cc(=O)oc3c2)cc1; assay type: biochemical, Thermothelomyces thermophilus
Description: as §3

B1: LCC^ICCG (leaf-branch compost cutinase ICCG variant) (unidentified prokaryotic organism; D238C/F243I/S283C/Y127G) (protein)
chain: QSNPYQRGPNPTRSALTADGPFSVATYTVSRLSVSGFGGGVIYYPTGTSLTFGGIAMSPGYTADASSLAWLGRRLASHGFVVLVINTNSRFDGPDSRASQLSAALNYLRTSSPSAVRARLDANRLAVAGHSMGGGGTLRIAEQNPSLKAAVPLTPWHTDKTFNTSVPVLIVGAEADTVAPVSQHAIPFYQNLPSTTPKVYVELCNASHIAPNSNNAAISVYTISWMKLWVDNDTRYRQFLCNVNDPALCDFRTNNRHCQ
notes: recombinant engineered variant ICCG, pET-22b(+), E. coli BL21, intracellular fraction, purified
[1]
  Km: 21.7 ± 2.8 µM
  kcat: 1.3e-05 ± 1e-06 s⁻¹
[2]
  Km: 1.6 ± 0.1 µM
  kcat: 3.4e-05 ± 1e-06 s⁻¹
[3]
  Km: 7.2 ± 0.7 µM
  kcat: 5.8e-05 ± 2e-06 s⁻¹

B2: IsPETase (Pseudideonella sakaiensis) (protein)
chain: QTNPYARGPNPTAASLEASAGPFTVRSFTVSRPSGYGAGTVYYPTNAGGTVGAIAIVPGYTARQSSIKWWGPRLASHGFVVITIDTNSTLDQPSSRSSQQMAALRQVASLNGTSSSPIYGKVDTARMGVMGWSMGGGGSLISAANNPSLKAAAPQAPWDSSTNFSSVTVPTLIFACENDSIAPVNSSALPIYDSMSRNAKQFLEINGGSHSCANSGNSNQALIGKKGVAWMKRFMDNDTRYSTFACENPNSTRVSDFRTANCS
notes: recombinant, pET-22b(+), E. coli BL21, intracellular fraction, purified
[4]
  Km: 34.1 ± 5.5 µM
[5]
  Km: 6.7 ± 0.6 µM
  kcat: 5e-05 ± 2e-06 s⁻¹
[6]
  Km: 9.3 ± 0.8 µM
  kcat: 3.8e-05 ± 1e-06 s⁻¹

B3: StGE2 (glucuronoyl esterase) (Thermothelomyces thermophilus ATCC 42464) (protein)
chain: APMNHIFERQDTCSVSDNYPTVNSAKLPDPFTTASGEKVTTKDQFECRRAEINKILQQYELGEYPGPPDSVEASLSGNSITVRVTVGSKSISFSASIRKPSGAGPFPAIIGIGGASIPIPSNVATITFNNDEFGAQMGSGSRGQGKFYDLFGRDHSAGSLTAWAWGVDRLIDGLEQVGAQASGIDTKRLGVTGCSRNGKGAFITGALVDRIALTIPQESGAGGAACWRISDQQKAAGANIQTAAQIITENPWFSRNFDPHVNSITSVPQDHHLLAALIVPRGLAVFENNIDWLGPVSTTGCMAAGRLIYKAYGVPNNMGFSLVGGHNHCQFPSSQNQDLNSYINYFLLGQGSPSGVEHSDVNVNVAEWAPWGAGAPTLA
notes: recombinant, expressed in Komagataella phaffii (Pichia pastoris), purified
[7]
  Km: 0.7 ± 0.1 µM
[8]
  Km: 4.7 ± 0.4 µM
